B1: Compound 5 (peptide derivative of Formula 5): CH3CONH-Ala-Arg-Gln-Arg-Ala-Ser-Ala-COOH (peptide)
peptide: Ac-ARQRASA-OH
B2: Compound 4 (peptide derivative of Formula 4): H2N-Ala-Arg-Gln-Arg-Ala-Ser-Ala-COOH (peptide)
peptide: H-ARQRASA-OH
B3: Compound 3 (peptide derivative of Formula 3): CH3CONH-Arg-Gln-Arg-Ala-Ser-Ala-COOH (peptide)
peptide: Ac-RQRASA-OH
B4: Compound 2 (peptide derivative of Formula 2): H2N-Arg-Gln-Arg-Ala-Ser-Ala-COOH (peptide)
peptide: H-RQRASA-OH

Molecular target: thymic stromal lymphopoietin (TSLP)
Test: cell-based or functional assay

Chain of thymic stromal lymphopoietin (TSLP) (Q969D9 29-159): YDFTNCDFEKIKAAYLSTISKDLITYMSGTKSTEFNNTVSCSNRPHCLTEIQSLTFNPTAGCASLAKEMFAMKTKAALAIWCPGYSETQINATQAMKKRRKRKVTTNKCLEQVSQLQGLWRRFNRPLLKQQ

Binder	Degrees of phosphorylation of STAT5 molecules in cells (%), 0.3 µM peptide mixed with TSLP 100 ng/mL, HMC-1 cells, flow cytometry; control with TSLP alone = 100%	Degrees of phosphorylation of STAT5 molecules in cells (%), 3 µM peptide mixed with TSLP 100 ng/mL, HMC-1 cells, flow cytometry; control with TSLP alone = 100%	Degrees of phosphorylation of STAT5 molecules in cells (%), 30 µM peptide mixed with TSLP 100 ng/mL, HMC-1 cells, flow cytometry; control with TSLP alone = 100%
B1	86.1%	84.6%	77.1%
B2	71%	68.3%	70.9%
B3	73.5%	67.8%	66.9%
B4	84.4%	77.9%	69.8%
